In patent US20130019345A1 (NATIONAL UNIVERSITY CORPORATION NARA INSTITUTE OF SCIENCE …, published 2013):
Changes are numbered by the printed parent chain. Names may count otherwise. One block for each molecule: values may come before it. Where no end group is shown, it is not given here. [ ]: non-standard residue; d: D form. pS = N[C@@H](COP(=O)(O)O)C(=O)O

Legend:
[1] = target: 14-3-3 protein (endogenous rice OsGF14; isoform not specified); assay: cell-based or functional assay
[2] = target: T1, OsGF14b mutant D233A, yeast two-hybrid fusion (rice, UniProt Q7XTE8 1-262); assay: yeast two-hybrid, growth on selective medium
T1 construct: not shown: two-hybrid fusion partner encoded by pBTM116-GW or pVP16-GW
T1 sequence: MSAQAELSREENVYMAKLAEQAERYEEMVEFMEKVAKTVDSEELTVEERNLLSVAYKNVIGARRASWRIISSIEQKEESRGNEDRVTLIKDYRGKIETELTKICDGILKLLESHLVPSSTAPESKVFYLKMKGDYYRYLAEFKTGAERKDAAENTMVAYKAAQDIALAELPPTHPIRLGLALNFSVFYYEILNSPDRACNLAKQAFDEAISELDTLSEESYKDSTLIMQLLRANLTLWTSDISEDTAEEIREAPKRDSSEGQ
Protocol: (§1) For an interaction assay, pBTM116 and pVP16 were converted to pBTM116-GW and pVP16-GW, respectively, using a Gateway vector conversion system (Invitrogen) according to the manufacturer's instructions. Yeast cells were grown at 30° C. for 5 days using an SC medium (without uracil, tryptophan, leucine, and histidine), the medium containing added histidine or 1 to 10 mM 3-aminotriazole (+His or +3-AT). The concentration of 3-AT was determined by a bait-prey combination.
(§2) Various mutant proteins were produced by constructing plasmids as described below. […] The PCR-amplified fragments were cloned into a pENTR/D-TOPO cloning vector (Invitrogen) to obtain entry clones.

[3] = target: T2, OsGF14b mutant R232A, yeast two-hybrid fusion (rice, UniProt Q7XTE8 1-262); assay: yeast two-hybrid, growth on selective medium
T2 construct: not shown: two-hybrid fusion partner encoded by pBTM116-GW or pVP16-GW
T2 sequence: T1 sequence with R232A, A233D
Protocol: as §1, §2

[4] = target: T3, OsGF14b mutant I210A, yeast two-hybrid fusion (rice, UniProt Q7XTE8 1-262); assay: yeast two-hybrid, growth on selective medium
T3 construct: not shown: yeast two-hybrid fusion partner encoded by pBTM116-GW or pVP16-GW, and its linker
T3 sequence: T1 sequence with I210A, A233D
Protocol: as §1, §2

[5] = target: T4, OsGF14b (Os04g0462500), full-length, yeast two-hybrid fusion (rice, UniProt Q7XTE8 1-262); assay: yeast two-hybrid, growth on selective medium
T4 construct: not shown: two-hybrid fusion partner encoded by pBTM116-GW or pVP16-GW
T4 sequence: T1 sequence with A233D
Protocol: as §1, §2

[6] = target: T5, OsGF14b mutant F206A, yeast two-hybrid fusion (rice, UniProt Q7XTE8 1-262); assay: yeast two-hybrid, growth on selective medium
T5 construct: not shown: yeast two-hybrid fusion partner encoded by pBTM116-GW or pVP16-GW, and its linker
T5 sequence: T1 sequence with F206A, A233D
Protocol: as §1, §2

[7] = target: T6, OsGF14b mutant Y221A, yeast two-hybrid fusion (rice, UniProt Q7XTE8 1-262); assay: yeast two-hybrid, growth on selective medium
T6 construct: not shown: two-hybrid fusion partner encoded by pBTM116-GW or pVP16-GW
T6 sequence: T1 sequence with Y221A, A233D
Protocol: as §1, §2

[8] = target: T7, OsGF14b mutant E218A, yeast two-hybrid fusion (rice, UniProt Q7XTE8 1-262); assay: yeast two-hybrid, growth on selective medium
T7 construct: not shown: yeast two-hybrid fusion partner encoded by pBTM116-GW or pVP16-GW, and its linker
T7 sequence: T1 sequence with E218A, A233D
Protocol: as §1, §2

[9] = target: T8, GF14b, full-length, Vn- or Vc-tagged (BiFC) (rice, UniProt Q7XTE8 1-262); assay: BiFC (Venus) in rice Oc protoplasts
T8 construct: it is put first only for listing; also called OsGF14b; not shown: Vn or Vc fragment of Venus (BiFC tag), at the N- or C-terminal
T8 sequence: T1 sequence with A233D
Protocol: (§3) (1) The transformation of rice Oc protoplasts was performed by a method described in Kyozuka and Shimamoto 1991, Plant J. 6, 271 (1994), Non Patent Literature 1, or the like. Fluorescent protein expression vectors having introduced therein various proteins were introduced into a protoplast suspension (2×10⁷ protoplasts/ml) by a PEG method (PEG-mediated method). After incubation at 30° C. for 24 hours, transformed protoplasts were obtained and used for microscopic observation.
(§4) Therefore, the number of cells showing higher values than the above-mentioned values was scored.

[10] = target: T9, Hd3a, full-length, Vn- or Vc-tagged (BiFC) (rice, UniProt Q93WI9 1-179); assay: BiFC (Venus) in rice Oc protoplasts (endogenous 14-3-3 proteins present)
T9 construct: it is put first only for listing; not shown: Vn or Vc fragment of Venus (BiFC tag), at the N- or C-terminal
T9 sequence (Q93WI9 whole entry, the tested form may be a part): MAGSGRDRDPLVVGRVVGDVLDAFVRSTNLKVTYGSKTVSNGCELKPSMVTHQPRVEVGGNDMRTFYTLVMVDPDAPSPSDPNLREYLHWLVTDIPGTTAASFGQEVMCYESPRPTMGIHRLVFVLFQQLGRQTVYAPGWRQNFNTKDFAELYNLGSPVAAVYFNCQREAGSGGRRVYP
Protocol: as §3, §4

[11] = target: T10, GST-fused Hd3a protein (full-length Hd3a) (rice, UniProt Q93WI9 1-179); assay: in vitro GST pull-down, GST-Hd3a on glutathione resin, SDS-PAGE
T10 construct: also called GST-Hd3a; not shown: GST (glutathione S-transferase) fusion partner
T10 sequence (Q93WI9 whole entry, the tested form may be a part): as above
Protocol: After that, the resin was washed with a phosphate buffer (pH 6.8) containing 50 mM KCl and 1 mM DTT to remove a free GST-fused protein unbound to the resin. The isolated and purified GST protein bound to the resin was used as a negative control. […] After that, the resins were washed with a phosphate buffer (pH 6.8) containing 50 mM KCl and 1 mM DTT to remove a free GST-GF14c polypeptide unbound to the resins. Each of the bound proteins was eluted with a phosphate buffer (pH 6.8) containing 50 mM glutathione, 50 mM KCl, and 1 mM DTT and confirmed by SDS polyacrylamide electrophoresis.

[12] = target: T11, GF14c residues 1 to 235 (crystallization construct) (rice, UniProt Q6ZKC0 1-235); assay: X-ray crystal structure of the florigen activation complex; peptide soaked into Hd3a-GF14c crystals
T11 construct: Expressed in E. coli and purified; co-crystallized with Hd3a 6-170; also called 14-3-3 protein
T11 sequence: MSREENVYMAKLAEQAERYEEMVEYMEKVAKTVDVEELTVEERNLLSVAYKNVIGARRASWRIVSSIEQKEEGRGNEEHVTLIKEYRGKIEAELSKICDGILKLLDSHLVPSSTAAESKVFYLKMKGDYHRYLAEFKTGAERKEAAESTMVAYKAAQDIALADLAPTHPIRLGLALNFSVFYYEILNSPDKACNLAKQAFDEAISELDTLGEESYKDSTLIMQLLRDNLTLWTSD
Protocol: The crystallization of the complex was performed at 4° C. by a sitting drop method using a mixture of 1 μl of the protein solution (protein concentration: 10 mg/mL) and 1 μl of a precipitant solution (0.1 M HEPES (pH 7.5), 0.2 M ammonium sulfate, and 25% PEG 3350).

Molecule: Hd3a(R64G)-GFP (prolC::Hd3a(R64G)::GFP) (from UniProt Q93WI9 1-179)
Days to flowering (days) of transgenic rice [1]: 44.2 days

Molecule: Hd3a-GFP-fused protein (full-length Hd3a coding region conjugated to GFP) (from UniProt Q93WI9 1-179)
Days to flowering (days) of transgenic rice [1]: 19.6 days

Molecule: Hd3a(R64G/R132A)-GFP (prolC::Hd3a(R64G/R132A)::GFP) (from UniProt Q93WI9 1-179)
Days to flowering (days) of transgenic rice [1]: 58.8 days

B1: OsFD1 (Os09g0540800), full-length, yeast two-hybrid fusion (other)
chain: MAMEDDEDMWANTSSPSASPPRPRGFISTALSLNSTHLQGLLPSSFVDAAASPCHASGNNNGGGDGRNAAPMSSIFFASASYHQQQHHLPAPAPLDGAILPARRFGLDMCAAAAAAPAGVPAAGDRRKRRMIKNRESAARSRARKQARVNNLETEVEQLKQENKMLRVKYEQLRKTVEVPVPVRRTLQRVLSAPF
notes: not shown: two-hybrid fusion partner encoded by pBTM116-GW or pVP16-GW
binding result [2]: binds
binding result [3]: binds
binding result [4]: binds
binding result [5]: binds
binding result [6]: binds
binding result [7]: binds
binding result [8]: binds

Other lines, results leading:

binding result [9]: binds
binding result [10]: binds
B2: OsFD1, full-length, Vn- or Vc-tagged (BiFC) (other)
chain: B1 chain
notes: it is put first only for listing; not shown: Vn or Vc fragment of Venus (BiFC tag), at the N- or C-terminal

binding result [11]: no binding
B3: OsFD1 having a mutation of S192E in a region of positions 147 to 195 in SEQ ID NO: 3, not fused with GST (other)
chain: ARVNNLETEVEQLKQENKMLRVKYEQLRKTVEVPVPVRRTLQRVLEAPF

binding result [12]: binds
B4: OsFD1 polypeptide, residues 187 to 195, chemically synthesized (peptide)
peptide: LQRVL[pS]APF
notes: Soaked at 2 mM into Hd3a-GF14c crystals
